Measurements taken from patent US20220332837A1.

Target: OX40-6His Protein-196AAs-21.82 kDa (recombinant canine OX40) (canine)
Assay: phage ELISA, OX-40 coated (control)

Sequence of OX40-6His Protein-196AAs-21.82 kDa (recombinant canine OX40) (canine) (chain, as listed by the source limits assumed): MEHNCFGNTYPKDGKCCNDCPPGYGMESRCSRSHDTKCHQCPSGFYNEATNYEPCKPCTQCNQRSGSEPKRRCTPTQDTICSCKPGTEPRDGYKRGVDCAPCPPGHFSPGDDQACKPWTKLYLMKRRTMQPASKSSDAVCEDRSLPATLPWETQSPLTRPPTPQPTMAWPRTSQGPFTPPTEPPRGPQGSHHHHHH

Substance: M13KO7
- ELISA signal, Coating: OX-40: 0.35
